From patent US20240156869A1 (published 2024) come the findings set out here.

The target in the assay is T1, HERV-E (CT-RCC8/9 by the listing's note) peptide on HLA-A*11 (human).
T1 peptide: ATFLGSLTWK
Kind of assay: cytokine release.

Description: To test whether A*11 expression conferred target recognition to these transduced cells, a co-culture experiment was performed. […] After 18 hours, the supernatant was collected and an ELSIA was performed on the supernatant for interferon-gamma (IFNγ).
To test whether A*02 expression conferred target recognition to these transduced cells, a co-culture experiment was performed. […] After 18 hours, the supernatant was collected, and an ELISA was performed on the supernatant for Interferon-gamma (IFNγ).

B1: HERV-E-TCR (TCR, V domains shown)
Valpha: GIQVEQSPPDLILQEGANSTLRCNFSDSVNNLQWFHQNPWGQLINLFYIPSGTKQNGRLSATTVATERYSLLYISSSQTTDSGVYFCAVRGGADGLTFGKGTHLIIQP
Vbeta: DTEVTQTPKHLVMGMTNKKSLKCEQHMGHRAMYWYKQKAKKPPELMFVYSYEKLSINESVPSRFSPECPNSSLLNLHLHALQPEDSALYLCASSPPNEKLFFGSGTQLSVL
For the molecule B1, the binding result is “recognises”.
